The series in a line: label from the status in PepcDB records.
Regarding “MQNKARKNYIIYVLMLLLFGGLIYVAIEEGDRFSHHAANTLNTVQDGPFAMFLQFMQDNLHHPLTTLLIQIIAVLLMVRLFGYLFSLIGQPGVIGEIVAGIVLGPSVLGLFFPEAFHFLFPVHSLTNLELLSQVGLILFMFVIGMELDFSVLKNKINETLVISHAGILVPFFLGILSSYWIYETYAADHTPFLPFALFIGISMSITAFPVLARIIQERNMTKTPLGTLAIASAANDDVTAWCLLAVVIAISKAGSFASALYSVGLAVAYIAVMFLVVRPFLKKVGEVYANKEAINKTFVAFILLILIISSCLTEIIGIHALFGAFMAGVVMPSNLGFRKVMMEKVEDISLVFFLPLFFAFTGLRTEIGLINSPELWMVCLLLVTVAIVGKLGGCAIAARLVGESWKDSLTVGTLMNTRGLMELVALNIGYEMGVLPPSIFVILVIMALVTTFMTTPLLHLVERFFVHREEKLSLKRKLIFCFGRPESGRSLLSIYDLLFGKQLKKEHVIAAHYTVGTDLNPLDAQHYESESFALLNQRAVELNIQVDNHYRVTDKLVQEMIHFIRKEHPDMLLLGAGSHYRPEMPGTPGAILWLTLFRDKIDDIMEQVKCPVAVFVNRNYREGALVSFVLGGMIDVFLLSYLNIMLQNGHSVRLFLFETDDEEFHQCIDDLLAHYADQIVVVWFAGVEELVTKERDGLLVMSHLSYTKLSEDELVMRELSSLLVIRRNKNKGEKNERLEIG”, the protein production result is “failed”.

On to “MNSSPPPANSANGDTTNNGENGQDLNLNFLDKIRLSAKRDAKEDEGEELPTELNTINSAGGFLVVSPDKLSVKYTNTNLHGHDVGVVQANKPAPIKCLTYYFEIFVKDSGIKGQIAIGFTKESFKMRRQPGWEVNSCGYHGDDGYLYRGQGKGEPFGPKFTKDDAVGGGINYASQEFFFTKNGTIVGKIPKDIRGHLFPTVAVHSQNEEVLVNFGKKKFAFDIKGYEASERNKQQLAIEKISIPPNIGYGLVKTYLLHYGYEETLDAFNLATKNTVPPIHIDQENAIDEDDSSYALKQRKNLRQLVRNGEIDTALAELQKLYPQIVQDDKSVVCFLLHCQKFIELVGKLEEGVNYGRLELAKFVGLTGFQDIVEDCFALLAYEKPEESSVWYFLEDSQRELVADAVNAAILSTNPNKKDVQRSCHLQSHLEKLLRQLTVCCLERRSLNGDQGETFRLRHVLNNNR”, for which the protein production entry is on record as “failed”.

On to “MATSAKTLQQRMGIIALTWPIFIETLLQSLLGISDIFMLSHYSDNAVAAVGLTTQLMFFMMVMSMMVSTGASILISQNNGAGRTQEATDIGVASVALSLGLAVVMGAAMFFCAHGIIGLFELEPKVAGYGYDYLLICGSLSIGLVMNIAFAAILRSYGFTRSAMLVTLSTGLMNVLGNYIALYSPFGLPVYGVTGVAISTVTSQLMGALIMLAVIRSKHIPLPMQRLNSLPRSTYWSVMRIGLLNAGEMLSYNVAQMTIIYFISQMGTLSLTAYTYGLNISRFIYCFSVALGQAAQIQTGYYVGKQWFDEITVRVQKYCLVGFIVSLAIVLIFFWQRFTIVGWLSENPEVIQLTALLLLGSIALETGRVFNLVIISALKGAGDVAFTVRVGLFSMWGIGVLLAWFFGLYLGYGVLAAWLAVAADEWVRGLIMVQRWRSGRWQRFTRIPPATSA”, for which the protein production entry is listed as “failed”.

For “MCLGIPARVVEVLDGPLPMAVVDMAGEQRPCSVMYVPEVQVGQFVLLQNGYAMEVLDEKSAQESLATIAEFNLVQQVQLAPRE”, the protein production entry is on record as “failed”.

On to “MKHEWRKFEKELYGVKAKPIFLEVEEQRFITIKGKGNPNDQDFSNRVSALYALAYGIKMAYKQAMKTEQDDRAVTDFAVYPLEGLWQQAKDAKEDTLEKDKLSYTIMIRQPEFITKELVDQALDRVKIKKPNSFYESISFESIKDGKCIQVLHIGSYDDEPQSFAKMDAFAKEHGLKRSSDIHREIYLSNAQRTEKSKLKTILRYQVEEK”, for which the protein production entry is recorded as “failed”.

Regarding “MKKGIFTALLFTVIVALYSLHLANGKCVYKSNISSLLLENIEALAADEDGSDDGEVVGGKIRCIDVGSLDCPLTHEKVKYIVRGYSL”, the protein production entry is on record as “failed”.

“MRFLAYFGHLNIDVLISVDSIPREGSVNVKDLRPRFGGTAGNFAIVAQKFRIPFDLYSAVGMKTHREYLAMIESMGINTGHVEKFEDESGPICYIATDGKKQVSFMHQGAMAAWAPQLADEYEYVHFSTGPNYLDMAKSIRSKIIFDPSQEIHKYSKDELKKFHEISYMSIFNDHEYRVFREMTGLSSPKVTTIVTNGERGSSLFMDGKKYDFPAIPSSGDTVGAGDSFRAGLYLALYNRRSIEKGMIYGTIIAHHVIDDGIENFSLNMEDLERETENYRRMFTKRS”: the protein production entry is “not failed”.

Consider “GMINAHNHLPMIAFRGLGEEGISNRLFAYFFPLEAQKLSRELIYNATKLGAIDLAQSGVTTYADMYYHMDEMAKATKEVGLRAVLGETVIKFPVVDAKQPYGGIQYAKPFIEEYQNDPLITPAYAPHAVYTVSKEKLQEINQLSEDYDVPVLIHVAEFPNEEARIKDPTKATSPVEYLEEIGVLDERMVIAHGIHLSQHDQALLKQADAGVVYNPMANVKGATGIAPAWDMFRADMRVGLGTDGPMSSNQVDLWRTLSYAANMQRLKHSDRTIMIPEQVIEMATIGGAKALHMEDE”, for which the protein production entry is “failed”.

For “MASGMGVDENCVARFNELKIRKTVKWIVFKIENTKIVVEKDGKGNADEFRGALPANDCRFGVYDCGNKIQFVLWCPDNAPVKPRMTYASSKDALLKKLDGATAVALEAHEMGDLAALA”, the protein production result was “failed”.

As for “LAPTAQKMSKNYGVLASILLSQAAYESNYGSSLLSVKYHNIYSLPARPGQEHIYLKDNVYSKGKWQYQKVDFAVFRDWSSSMSSYLEELRQGRWGESTYKEVAGTTSYKVAAEKLQAAGFNSDPDYTKHLISIIETYNLVKYDR”, the protein production entry is “failed”.

For “MGDSAPARIDTLEIKLLFAGDIMTHGPQIESAKCEGGRVYDFSSSFDTLASRIGAADLAIGNLETTFAGAPYSGYPTFSSPDAMGEALKNAGFDVLTTANNHTADKGKKGIIRTLDMLDSLGIAHTGSYRDIFDRDKMTPLILEVKGVRIAILAYTYGTNGMPVPAPTWVDPIDTVMIKKDLLRADSLGADYRIVQIHWGIEYRKEPDSEQLELARKLHRYGADAIIGSHPHVVQGSQWLKSDSKTSFVIYSMGNFISNQRKPAATRGGMLLSLTLRKVGDRITTHPDYQYVFVNKRTPQGKRVYRLLPVDPFSSDTLPSLPPEEQRDYKEFAKYYQMIPLVLIEREDNRIRNRLQVSQRAFLEHHHHHH”, the protein production entry is “failed”.

“MEIFKPDYLMIDSMIFFPTLILSFLIKRNYVKLLKSIGIVSPIYLFWDFLATWRNSWTFNPKYVAGIYVIDLPIEEVMFFLVTPFATLLIFDFVMGKVRDKEVKWVPKVVCVAIPLLLLTLPFVYNYSYTFIDLVYLIMSLIVSLLIGRNLLASRNFWIFMGLSYIPFLVFDYFLTSDPVVIYGSHSIVGIRFITIPIEDFIYSFSMITFYTVFYIRGNSLWMKQK”: the protein production result is “failed”.

As for “MPTNAGTSLSSYKHIVAIGTTVKSESLESAAYEIPRKRKMRSDSAAVSGNSVSTPKKLKSHLPSSVPNPGMSEKEVVEDSNEILRYPVNLAVSDCLGTKSKWSPRDEEQMRAVKEALHVSKAPSTILCREDEQIRIFEFVKGCIDQQKAGSLYICGCPGTGKSLSMEKVVQQVGDWSTQAGLPPVDTLSVNCTSLSKTTDIFSKILGEIKPGKNANTNSSPLQHLQNLFSQKQESSSSRMMLIIADEMDYLITKDRGVLYDLFMLTTLPFSRCILIGVANAIDLADRFLPKLKSLNCKPMVITFRAYSKDQILRILQERLRVLSYVAFQPKALELCARKVAAASGDMRKALCVCRSALEILEIETRGSTGPESQGPTPDDSVVRMDHMAAALSKTFKSPVVETIQSLPQHQQIIICAAAKAFRGSKKDATVGELNKLYLEICKSWMISPAGITEFTNMCTVLNDQGILKVGQARRDKLKRVSLRVDESDITFALQVNSLFILFFANP”, the protein production entry is “failed”.

Turning to “MKKIAIFGSAFNPPSLGHKSVIESLSHFDLVLLEPSIAHAWGKNMLDYPIRCKLVDAFIKDMGLSNVQRSDLEQALYQPGQSVTTYALLEKIQEIYPTADITFVIGPDNFFKFAKFYKAEEITERWTVMACPEKVKIRSTDIRNALIEGKDISTYTTPTVSELLLNEGLYRETLSGK”, the protein production entry is on record as “not failed”.

Take “MHVALNQTMPDDVQGTVATIYTSSEQLQLFAFEAEVNENFEMAAAYYKERLVREPQNLDHWLDYGAFCLLTEDNIKAQECFQKALSLNQSHIHSLLLCGVLAVLLENYEQAEIFFEDATCLEPTNVVAWTLLGLYYEIQNNDIRMEMAFHEASKQLQARMLQAQVTKQKSTGVEDTEERGKRESSLGPWGITNGSATAIKVEAPAGPGAALSILDKFLEESSKLQSDSQEPILTTQTWDPSISQKPSNTFIKEIPTKKEASKCQDSSALLHPGLHYGVSQTTTIFMETIHFLMKVKAVQYVHRVLAHELLCPQGGPSCEYYLVLAQTHILKKNFAKAEEYLQQAAQMDYLNPNVWGLKGHLYFLSGNHSEAKACYERTISFVVDASEMHFIFLRLGLIYLEEKELEELTEAEDALSEANALNNYNAEVWAYLALVCLKVGRQLEAEQAYKYMIKLKLKDEALLAEIHTLQETVGFGNPSF”: the protein production result is “failed”.

Regarding “DRAVKEFEANGGSSAANGGGAKKRAKPAKKVAKKSKKEESDEDDDDESE”, the protein production entry is on record as “failed”.

As to “MDAARFPADARVRVLARRFPPYHRDSPCLAILDRFLHDPTLSAAAVVDDAMRPVGLIDRYSLVEQFLHPYSRDLYHKHSIAAFMDPEPVIVEADSSIDDLSRIIIDAGMRHMVSGFIVTEDGLYLGIGSGHDLFEEVANRKQNHLYHLAHYDPLTSLPNRLLLNDRLKRACLRGQRGGYRIALLFIDLDRFKLVNDTLGHAAGDQLLQGVAGRFAACVRKVDTVARLGGDEFTVLLEPVQGPDEALAVAAKLAQSLERPFLIQNHEITTSASIGVVLFPEHDATVEGLMRKADAAMYCAKREGRNRFALFTEEMNSTVVERVTLESYLNAALEKGEFCCHFQPQMATADDRIVGVEALLRWTNPVLGRVPPLKFIPVAEDTGLILPLGLWALETACAQQVRWLSQGLPPLRMAVNISPLQFRNREFCDQVRAIVQRTGIRAEHLELELTESAVMADAESSVGILRELRDSGIRLAIDDFGTGYSSLSYLRKFPLDRLKIDRSFVSGIDRIPANELIVKAIVALGGSLGLDVIAEGVETPEELECIERCGCSEYQGFRLSEPLTAEDFAHWFEDSGYVLEHHHHHH”, the protein production result is on record as “failed”.

As to “IRYAIERQRVEEALRHSEERFRVALKNSPIFVFNQDRDLRYTWIYNPIAGWTVEEMLGKQDSEIMSEQDAQCLTAIKYHVLTTGIGTRQVVSIGTPLGTKYYDLTVEPLRNESQDIVGITCACIDISERKLAEAKIREQ”, the protein production result is listed as “not failed”.

For “MNLVETAQAIKTGKVSLGIELGSTRIKAVLITDDFNTIASGSYVWENQFVDGTWTYALEDVWTGIQQSYTQLAADVRSKYHMSLKHINAIGISAMMHGYLAFDQQAKLLVPFRTWRNNITGQAADELTELFDFNIPQRWSIAHLYQAILNNEAHVKQVDFITTLAGYVTWKLSGEKVLGIGDASGVFPIDETTDTYNQTMLTKFSQLDKVKPYSWDIRHILPRVLPAGAIAGKLTAAGASLLDQSGTLDAGSVIAPPEGDAGTGMVGTNSVRKRTGNISVGTSAFSMNVLDKPLSKVYRDIDIVMTPDGSPVAMVHVNNCSSDINAWATIFHEFAARLGMELKPDRLYETLFLESTRADADAGGLANYSYQSGENITKIQAGRPLFVRTPNSKFSLPNFMLTQLYAAFAPLQLGMDILVNEEHVQTDVMIAQGGLFRTPVIGQQVLANALNIPITVMSTAGEGGPWGMAVLANFACRQTAMNLEDFLDQEVFKEPESMTLSPEPERVAGYREFIQRYQAGLPVEAAAGQAIKYLEHHHHHH”, the protein production result is reported as “not failed”.
